Experiments:
human cMET [1] = molecular target: T1, human cMET (human, UniProt P08581 25-932, limits assumed); experiment: SPR (Met Binding KD)
T1 construct: also called hMET; HGFR

human cMET [2] = molecular target: T1, human cMET; experiment: ELISA, species cross-reactivity, antibody titrated on human cMET; x axis printed -8 to 2 with ug/mL (log10)
[3] = molecular target: T2, monkey cMET (Macaca fascicularis, Cynomolgus Macaque) (Cynomolgus Macaque (Macaca fascicularis), UniProt A0A2K5UM36 25-932); experiment: ELISA, species cross-reactivity, antibody titrated on cynomolgus cMET; x axis printed -8 to 2 with ug/mL (log10)
T2 construct: also called Cyno cMET; NHP

[4] = molecular target: T3, Recombinant Human c-Met-10x His (human, UniProt P08581 25-932); experiment: MET Binding ELISA on plate-bound human cMET, direct binding; the half-maximal value is printed as IC50
T3 construct: Made in-house
Source text: Relative binding strength is indicated by luminescence (y-axis).

human cMET [5] = molecular target: T1, human cMET; experiment: ELISA on human cMET, ratio against the parental antibody
rat cMET = molecular target: T4, rat cMET (rat, UniProt P97523 25-935, limits assumed); experiment: ELISA on rat cMET, ratio against the parental antibody
T4 construct: also called rMET
T4 sequence (P97523 25-935 limits assumed): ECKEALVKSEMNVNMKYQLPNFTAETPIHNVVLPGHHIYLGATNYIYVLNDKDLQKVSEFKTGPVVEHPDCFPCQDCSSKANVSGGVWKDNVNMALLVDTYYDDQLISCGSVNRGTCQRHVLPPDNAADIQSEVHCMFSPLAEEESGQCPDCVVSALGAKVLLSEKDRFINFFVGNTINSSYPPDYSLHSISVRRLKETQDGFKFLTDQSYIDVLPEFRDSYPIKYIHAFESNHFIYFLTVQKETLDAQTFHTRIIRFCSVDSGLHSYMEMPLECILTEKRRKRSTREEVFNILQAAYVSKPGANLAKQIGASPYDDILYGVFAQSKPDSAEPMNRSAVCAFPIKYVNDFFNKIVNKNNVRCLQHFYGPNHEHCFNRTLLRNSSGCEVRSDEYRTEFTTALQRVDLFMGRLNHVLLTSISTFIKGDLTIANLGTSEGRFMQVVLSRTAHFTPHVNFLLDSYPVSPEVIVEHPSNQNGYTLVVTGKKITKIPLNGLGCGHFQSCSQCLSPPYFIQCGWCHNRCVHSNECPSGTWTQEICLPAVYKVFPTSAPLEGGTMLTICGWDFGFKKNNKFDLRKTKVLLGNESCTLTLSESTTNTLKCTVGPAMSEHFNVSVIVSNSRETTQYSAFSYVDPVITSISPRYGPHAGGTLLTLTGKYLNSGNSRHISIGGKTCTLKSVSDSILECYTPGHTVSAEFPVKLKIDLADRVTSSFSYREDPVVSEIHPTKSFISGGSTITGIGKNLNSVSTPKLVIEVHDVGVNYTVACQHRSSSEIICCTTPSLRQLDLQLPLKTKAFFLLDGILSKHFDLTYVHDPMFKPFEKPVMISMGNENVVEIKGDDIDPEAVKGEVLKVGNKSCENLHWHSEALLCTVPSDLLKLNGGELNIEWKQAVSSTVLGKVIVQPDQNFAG

T1 sequence (P08581 25-932 limits assumed): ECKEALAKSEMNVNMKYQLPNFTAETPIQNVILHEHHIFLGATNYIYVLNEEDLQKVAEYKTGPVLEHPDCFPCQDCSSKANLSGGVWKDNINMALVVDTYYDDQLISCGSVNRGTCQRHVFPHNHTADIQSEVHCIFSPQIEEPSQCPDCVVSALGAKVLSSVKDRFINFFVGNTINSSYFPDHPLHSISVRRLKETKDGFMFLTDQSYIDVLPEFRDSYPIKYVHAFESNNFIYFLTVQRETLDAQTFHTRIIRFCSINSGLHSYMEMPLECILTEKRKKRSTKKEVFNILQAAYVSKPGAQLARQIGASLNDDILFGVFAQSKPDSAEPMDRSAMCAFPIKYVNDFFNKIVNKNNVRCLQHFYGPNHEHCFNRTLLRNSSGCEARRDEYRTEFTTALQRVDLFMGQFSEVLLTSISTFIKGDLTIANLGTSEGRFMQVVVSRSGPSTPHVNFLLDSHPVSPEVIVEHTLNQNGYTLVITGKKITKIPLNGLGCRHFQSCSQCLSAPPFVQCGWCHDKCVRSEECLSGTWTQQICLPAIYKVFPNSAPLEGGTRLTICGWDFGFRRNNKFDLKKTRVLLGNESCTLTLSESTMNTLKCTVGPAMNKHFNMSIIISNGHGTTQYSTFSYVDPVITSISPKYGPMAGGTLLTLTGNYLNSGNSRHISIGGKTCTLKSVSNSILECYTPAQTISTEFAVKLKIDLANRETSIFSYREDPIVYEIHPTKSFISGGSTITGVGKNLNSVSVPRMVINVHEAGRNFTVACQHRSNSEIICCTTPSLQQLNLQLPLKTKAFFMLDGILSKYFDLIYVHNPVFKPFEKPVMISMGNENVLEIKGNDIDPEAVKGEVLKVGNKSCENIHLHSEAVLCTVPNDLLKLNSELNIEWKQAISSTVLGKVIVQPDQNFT
T3 sequence (P08581 other isoform, or with tags, fused parts or gaps limits assumed): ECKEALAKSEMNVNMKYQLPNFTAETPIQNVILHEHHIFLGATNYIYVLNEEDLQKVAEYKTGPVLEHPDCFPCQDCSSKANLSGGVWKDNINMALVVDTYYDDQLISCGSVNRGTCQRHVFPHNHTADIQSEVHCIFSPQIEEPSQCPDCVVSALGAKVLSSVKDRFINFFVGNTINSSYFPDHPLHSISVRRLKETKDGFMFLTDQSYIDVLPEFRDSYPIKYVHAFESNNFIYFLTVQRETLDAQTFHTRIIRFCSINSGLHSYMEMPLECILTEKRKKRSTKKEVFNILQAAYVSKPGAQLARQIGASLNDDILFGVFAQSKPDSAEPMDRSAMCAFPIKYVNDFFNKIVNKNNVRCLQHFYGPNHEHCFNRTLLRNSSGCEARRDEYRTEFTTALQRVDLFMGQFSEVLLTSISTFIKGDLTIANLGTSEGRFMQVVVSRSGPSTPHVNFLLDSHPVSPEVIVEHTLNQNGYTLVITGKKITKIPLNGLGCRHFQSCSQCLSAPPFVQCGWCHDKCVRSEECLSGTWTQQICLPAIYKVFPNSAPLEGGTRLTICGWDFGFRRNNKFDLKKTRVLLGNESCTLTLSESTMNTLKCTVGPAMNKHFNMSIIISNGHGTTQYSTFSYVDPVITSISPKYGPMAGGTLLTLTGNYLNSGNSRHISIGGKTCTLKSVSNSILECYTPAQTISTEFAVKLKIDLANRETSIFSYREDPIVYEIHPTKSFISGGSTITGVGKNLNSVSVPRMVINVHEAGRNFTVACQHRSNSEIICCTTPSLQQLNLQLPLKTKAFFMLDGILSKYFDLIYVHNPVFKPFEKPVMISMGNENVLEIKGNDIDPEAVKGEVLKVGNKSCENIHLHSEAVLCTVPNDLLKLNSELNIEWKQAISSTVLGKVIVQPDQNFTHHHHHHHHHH
T2 sequence (A0A2K5UM36 entry or part of it limits assumed): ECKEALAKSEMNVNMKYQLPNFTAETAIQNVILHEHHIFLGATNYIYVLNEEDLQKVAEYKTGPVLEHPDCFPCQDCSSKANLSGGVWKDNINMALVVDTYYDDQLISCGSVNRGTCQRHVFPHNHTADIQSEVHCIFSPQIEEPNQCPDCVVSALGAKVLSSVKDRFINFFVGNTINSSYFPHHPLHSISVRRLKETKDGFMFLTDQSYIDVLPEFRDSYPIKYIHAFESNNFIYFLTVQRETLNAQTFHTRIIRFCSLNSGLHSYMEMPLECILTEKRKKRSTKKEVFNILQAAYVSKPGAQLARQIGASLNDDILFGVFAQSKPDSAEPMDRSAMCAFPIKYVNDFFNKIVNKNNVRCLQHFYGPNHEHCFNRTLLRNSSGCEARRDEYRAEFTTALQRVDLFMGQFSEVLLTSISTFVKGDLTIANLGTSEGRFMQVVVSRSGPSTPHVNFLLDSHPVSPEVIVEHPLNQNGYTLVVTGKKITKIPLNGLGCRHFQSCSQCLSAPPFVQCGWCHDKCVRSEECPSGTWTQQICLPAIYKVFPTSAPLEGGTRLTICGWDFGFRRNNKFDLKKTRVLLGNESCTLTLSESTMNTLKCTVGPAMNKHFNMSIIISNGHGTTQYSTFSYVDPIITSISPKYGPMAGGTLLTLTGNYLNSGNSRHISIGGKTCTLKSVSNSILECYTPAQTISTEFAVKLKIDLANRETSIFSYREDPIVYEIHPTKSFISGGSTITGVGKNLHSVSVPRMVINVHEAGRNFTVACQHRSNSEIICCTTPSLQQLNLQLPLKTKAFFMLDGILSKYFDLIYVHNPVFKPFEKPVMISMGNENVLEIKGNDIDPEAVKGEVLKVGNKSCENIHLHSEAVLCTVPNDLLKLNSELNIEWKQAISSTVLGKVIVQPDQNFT

| ELISA hMET vs parental (human cMET [5]) | ELISA rMET vs parental (rat cMET) | Molecule | further results |
| --- | --- | --- | --- |
| 1.3 | 2.7 | humanized P3D12 antibody, HC SEQ ID NO: 108 (P3D12 VH-cdr) / LC SEQ ID NO: 48 (P3D12 VL-abb/sdr) (antibody, V domains shown) VH: QVQLVQSGAEVKKPGASVKVSCKASGYTFTSYWMHWVKQAPGQGLDWIGYIKPSTDNTEYNQKFKDKATLTADKSTSTAYMELSSLRSEDTAVYYCARSYGNYPLMDYWGQGTTVTVSS VL: QIVLTQSPATLSLSPGERATLSCRASQSVTSNYLYWYQQKPGSSPRLLIYSTSNLASGVPARFSGSGSGTDYTLTISRLEPEDFASYFCHQWSSYPPTFGSGTKLEIKR |  |
| 1.7 | 1.4 | humanized P3D12 antibody, HC SEQ ID NO: 105 (P3D12 VH-fra) / LC SEQ ID NO: 47 (P3D12 VL-fra) (antibody, V domains shown) VH: QVQLQQSGAEVKKPGASVKVSCKASGYTFTSYWMHWVKQRPGQGLDWIGYIKPSTDNTEYNQKFKDRVTLTADKSTSTAYMQLSNLISEDTAVYYCARSYGNYPLMDYWGQGTSVTVSS VL: QIVLTQSPAILSLSPGERATLSCSASSSVTSNYLYWYQQKPGSSPKLLIYSTSNLASGVPARFSGSGSGTSYTLTISSLEAEDAASYFCHQWSSYPPTFGSGTKLEIKR |  |

Further lines, the molecule ahead of its results:

| Molecule | ELISA hMET vs parental (human cMET [5]) | ELISA rMET vs parental (rat cMET) | further results |
| --- | --- | --- | --- |
| 5D5 (agonist Met-mAb antibody, agonist positive control) |  |  | Kd (human cMET [1]): 0.85 nM |
| F6AP8E2 mouse monoclonal anti-cMET antibody (antibody, V domains shown, Mouse hybridoma antibody) VH: EVQLQQSGAELVRPGALVKLSCKASGFNINDYFMHWVKQRPEQGLEWIGWIDPENGNTIYDPKFQGKASITADTSSNTAYLQLSSLTSEDTAVYYCARGGNYLRESYYYAMDYWGQGTSVTVSS VL: DIVMTQSPKSMSMSVGERVTLSCKASENVGTYVSWYQQKPDQSPKLLIYGASNRYTGVPDRFTGSGSATDFTLTISSVQAEDLADYHCGQSYSYPLTFGAGTKLELKR |  |  | Kd (human cMET [1]): 0.18 nM; EC50 (read off the curve) (human cMET [2]): ~0.2 mg/L; EC50 (read off the curve) [3]: ~0.2 mg/L |
| F6B1P3D12 mouse monoclonal anti-cMET antibody (antibody, V domains shown, Mouse hybridoma antibody) VH: QVQLQQSGAELAKPGASVKMSCRASGYTFTSYWMHWVKQRPGQGLDWIGYIKPSTDNTEYNQKFKDKATLTADKSSSTAYMQLSSLTSEDSAVYYCARSYGNYPLMDYWGQGTSVTVSS VL: QIVLTQSPAIMSASPGEKVTLTCSASSSVTSNYLYWYQQKPGSSPKLWIYSTSNLASGVPARFSGSGSGTSYSLTISSMEAEDAASYFCHQWSSYPPTFGSGTKLEIKR |  |  | EC50 (read off the curve) (human cMET [2]): ~0.2 mg/L; EC50 (read off the curve) [3]: ~0.2 mg/L |
| hD12-VII (antibody hD12 attached to the payload of chemical formula VII, stochastic conjugation) (antibody, human IgG2, kappa, V domains shown, payload possibly on cysteines (random positions); payload of chemical formula VII linked through maleimide to cysteine thiols at random positions, Antibody-drug conjugate; also called hD12-vc-VII) VH: QVQLVQSGAEVKKPGASVKVSCKASGYTFTSYWMHWVKQAPGQGLDWIGYIKPSTDNTEYNQKFKDKATLTADKSTSTAYMELSSLRSEDTAVYYCARSYGNYPLMDYWGQGTTVTVSS VL: QIVLTQSPAILSLSPGERATLSCSASSSVTSNYLYWYQQKPGSSPKLLIYSTSNLASGVPARFSGSGSGTSYTLTISSLEAEDAASYFCHQWSSYPPTFGSGTKLEIKR |  |  | IC50 [4]: 0.042 mg/L |
| humanized P3D12 antibody, HC SEQ ID NO: 105 (P3D12 VH-fra) / LC SEQ ID NO: 46 (P3D12 VL-ven) (antibody, V domains shown) VH: QVQLQQSGAEVKKPGASVKVSCKASGYTFTSYWMHWVKQRPGQGLDWIGYIKPSTDNTEYNQKFKDRVTLTADKSTSTAYMQLSNLISEDTAVYYCARSYGNYPLMDYWGQGTSVTVSS VL: QIVLTQSPATMSASPGERVTLSCSASSSVTSNYLYWYQQKPGSSPRLWIYSTSNLASGVPARFSGSGSGTSYTLTISRMEPEDAASYFCHQWSSYPPTFGSGTKLEIKR | 1.7 | 1.2 |  |
| humanized P3D12 antibody, HC SEQ ID NO: 108 (P3D12 VH-cdr) / LC SEQ ID NO: 47 (P3D12 VL-fra) (antibody, V domains shown) VH: QVQLVQSGAEVKKPGASVKVSCKASGYTFTSYWMHWVKQAPGQGLDWIGYIKPSTDNTEYNQKFKDKATLTADKSTSTAYMELSSLRSEDTAVYYCARSYGNYPLMDYWGQGTTVTVSS VL: QIVLTQSPAILSLSPGERATLSCSASSSVTSNYLYWYQQKPGSSPKLLIYSTSNLASGVPARFSGSGSGTSYTLTISSLEAEDAASYFCHQWSSYPPTFGSGTKLEIKR | 0.7 | 0.9 |  |
| hD12-II (antibody hD12 attached to the payload of chemical formula II, stochastic conjugation) (antibody, human IgG2, kappa, V domains shown, payload possibly on cysteines (random positions); payload of chemical formula II (pyrrolobenzodiazepine toxin and linking group) linked through maleimide to cysteine thiols at random positions, also called hD12-vc-II) VH: QVQLVQSGAEVKKPGASVKVSCKASGYTFTSYWMHWVKQAPGQGLDWIGYIKPSTDNTEYNQKFKDKATLTADKSTSTAYMELSSLRSEDTAVYYCARSYGNYPLMDYWGQGTTVTVSS VL: QIVLTQSPAILSLSPGERATLSCSASSSVTSNYLYWYQQKPGSSPKLLIYSTSNLASGVPARFSGSGSGTSYTLTISSLEAEDAASYFCHQWSSYPPTFGSGTKLEIKR |  |  | IC50 [4]: 0.052 mg/L |
| hD12-VI (antibody hD12 attached to the payload of chemical formula VI, stochastic conjugation) (antibody, human IgG2, kappa, V domains shown, payload possibly on cysteines (random positions); payload of chemical formula VI linked through maleimide to cysteine thiols at random positions, Antibody-drug conjugate; also called hD12-vc-VI) VH: QVQLVQSGAEVKKPGASVKVSCKASGYTFTSYWMHWVKQAPGQGLDWIGYIKPSTDNTEYNQKFKDKATLTADKSTSTAYMELSSLRSEDTAVYYCARSYGNYPLMDYWGQGTTVTVSS VL: QIVLTQSPAILSLSPGERATLSCSASSSVTSNYLYWYQQKPGSSPKLLIYSTSNLASGVPARFSGSGSGTSYTLTISSLEAEDAASYFCHQWSSYPPTFGSGTKLEIKR |  |  | IC50 [4]: 0.036 mg/L |
| hD12-IV (antibody hD12 attached to the payload of chemical formula IV, stochastic conjugation) (antibody, human IgG2, kappa, V domains shown, payload possibly on cysteines (random positions); payload of chemical formula IV linked through maleimide to cysteine thiols at random positions, Antibody-drug conjugate; also called hD12-vc-IV) VH: QVQLVQSGAEVKKPGASVKVSCKASGYTFTSYWMHWVKQAPGQGLDWIGYIKPSTDNTEYNQKFKDKATLTADKSTSTAYMELSSLRSEDTAVYYCARSYGNYPLMDYWGQGTTVTVSS VL: QIVLTQSPAILSLSPGERATLSCSASSSVTSNYLYWYQQKPGSSPKLLIYSTSNLASGVPARFSGSGSGTSYTLTISSLEAEDAASYFCHQWSSYPPTFGSGTKLEIKR |  |  | IC50 [4]: 0.058 mg/L |
| hD12-XI (antibody hD12 attached to the payload of chemical formula XI, stochastic conjugation) (antibody, human IgG2, kappa, V domains shown, payload possibly on cysteines (random positions); payload of chemical formula XI linked through maleimide to cysteine thiols at random positions, Antibody-drug conjugate; also called hD12-vc-XI) VH: QVQLVQSGAEVKKPGASVKVSCKASGYTFTSYWMHWVKQAPGQGLDWIGYIKPSTDNTEYNQKFKDKATLTADKSTSTAYMELSSLRSEDTAVYYCARSYGNYPLMDYWGQGTTVTVSS VL: QIVLTQSPAILSLSPGERATLSCSASSSVTSNYLYWYQQKPGSSPKLLIYSTSNLASGVPARFSGSGSGTSYTLTISSLEAEDAASYFCHQWSSYPPTFGSGTKLEIKR |  |  | IC50 [4]: 0.103 mg/L |
| F6BP2D4 mouse monoclonal anti-cMET antibody (antibody, V domains shown, Mouse hybridoma antibody) VH: QVQLQQSGAELAKPGASVKMSCKASGYTFTSYWMHWVKQRPGQGLEWIGYINPSTDYIEYNQKFKDKATLTAGKSSSTAYMQLSSLTSEDSAVYYCARSYGNFPLMDYWGQGTSVTVSS VL: QIVLTQSPAIMSASPGEKVTLTCSASSSVSSNYLYWYQQKPGSSPKLWIYSTSNLASGVPVRFSGSGSGTSYSLTISSMEAEDAASYFCHQWSSYPPTFGSGTKLEIKR |  |  | EC50 (read off the curve) (human cMET [2]): ~0.2 mg/L; EC50 (read off the curve) [3]: ~0.2 mg/L |
| F6B1P1E2 mouse monoclonal anti-cMET antibody (antibody, V domains shown, Mouse hybridoma antibody) VH: QVQLQQSGAELAKPGASVKMSCKASGYTFTSYWMHWVKQRPGQGLEWIGYINPSTDYTEYNQKFKDKATLTADKSSTTAYMQLSSLTSEDSAVYYCVRSYGNYPLMDYWGQGTSVTVSS VL: QIVLTQSPAIMSASPGEKVTLTCSASSSVSSNYLYWYHQKPGSSPKLWIYSTSNLASGVPVRFSGSGSGTSYSLTISSMEAEDAASYFCHQWSSYPPTFGSGTKLEIKR |  |  | EC50 (read off the curve) (human cMET [2]): ~0.2 mg/L; EC50 (read off the curve) [3]: ~0.2 mg/L |
| humanized P3D12 antibody, HC SEQ ID NO: 107 (P3D12 VH-abb/sdr) / LC SEQ ID NO: 47 (P3D12 VL-fra) (antibody, V domains shown) VH: QVQLVQSGAEVKKPGASVKVSCKASGYTFTSYWMHWVKQAPGQGLDWMGYIKPSTDNTEYAQKFQGRVTLTADKSTSTAYMELSSLRSEDTAVYYCARSYGNYPLMDYWGQGTTVTVSS VL: QIVLTQSPAILSLSPGERATLSCSASSSVTSNYLYWYQQKPGSSPKLLIYSTSNLASGVPARFSGSGSGTSYTLTISSLEAEDAASYFCHQWSSYPPTFGSGTKLEIKR | 1 | 0.5 |  |
| humanized P3D12 antibody, HC SEQ ID NO: 108 (P3D12 VH-cdr) / LC SEQ ID NO: 49 (P3D12 VL-cdr) (antibody, V domains shown) VH: QVQLVQSGAEVKKPGASVKVSCKASGYTFTSYWMHWVKQAPGQGLDWIGYIKPSTDNTEYNQKFKDKATLTADKSTSTAYMELSSLRSEDTAVYYCARSYGNYPLMDYWGQGTTVTVSS VL: QIVLTQSPATLSLSPGERATLSCSASSSVTSNYLYWYQQKPGSSPRLLIYSTSNLASGVPARFSGSGSGTSYTLTISRLEPEDFASYFCHQWSSYPPTFGSGTKLEIKR | 1 | 2 |  |
| humanized P3D12 antibody, HC SEQ ID NO: 108 (P3D12 VH-cdr) / LC SEQ ID NO: 46 (P3D12 VL-ven) (antibody, V domains shown) VH: QVQLVQSGAEVKKPGASVKVSCKASGYTFTSYWMHWVKQAPGQGLDWIGYIKPSTDNTEYNQKFKDKATLTADKSTSTAYMELSSLRSEDTAVYYCARSYGNYPLMDYWGQGTTVTVSS VL: QIVLTQSPATMSASPGERVTLSCSASSSVTSNYLYWYQQKPGSSPRLWIYSTSNLASGVPARFSGSGSGTSYTLTISRMEPEDAASYFCHQWSSYPPTFGSGTKLEIKR | 1.1 | 1 |  |
| humanized P3D12 antibody, HC SEQ ID NO: 105 (P3D12 VH-fra) / LC SEQ ID NO: 49 (P3D12 VL-cdr) (antibody, V domains shown) VH: QVQLQQSGAEVKKPGASVKVSCKASGYTFTSYWMHWVKQRPGQGLDWIGYIKPSTDNTEYNQKFKDRVTLTADKSTSTAYMQLSNLISEDTAVYYCARSYGNYPLMDYWGQGTSVTVSS VL: QIVLTQSPATLSLSPGERATLSCSASSSVTSNYLYWYQQKPGSSPRLLIYSTSNLASGVPARFSGSGSGTSYTLTISRLEPEDFASYFCHQWSSYPPTFGSGTKLEIKR | 1.7 | 2.3 |  |
| humanized P3D12 antibody, HC SEQ ID NO: 105 (P3D12 VH-fra) / LC SEQ ID NO: 48 (P3D12 VL-abb/sdr) (antibody, V domains shown) VH: QVQLQQSGAEVKKPGASVKVSCKASGYTFTSYWMHWVKQRPGQGLDWIGYIKPSTDNTEYNQKFKDRVTLTADKSTSTAYMQLSNLISEDTAVYYCARSYGNYPLMDYWGQGTSVTVSS VL: QIVLTQSPATLSLSPGERATLSCRASQSVTSNYLYWYQQKPGSSPRLLIYSTSNLASGVPARFSGSGSGTDYTLTISRLEPEDFASYFCHQWSSYPPTFGSGTKLEIKR | 1.8 | 3.8 |  |

From US20210163604A1 (MITSUBISHI TANABE PHARMA, published 2021)
